Legend:
[1] = surface anti-SLC3A2 antibody binding at 4 °C, imaging; conditions: glycan lost; control: WTseq
[2] = Gal3-488 internalisation, 10 min 37 °C; conditions: glycan lost; control: WTseq
[3] = anti-SLC3A2 antibody uptake, 10 min 37 °C; conditions: glycan lost; control: WTseq
[4] = response of SLC3A2 endocytosis to 5 min inhibitor; conditions: glycan lost; control: WTseq (inhibitor reduced internalization by ∼50%)
[5] = endosomal distribution of internalised SLC3A2, confocal; conditions: glycan lost; control: WTseq (small peripheral endosomes)
[6] = dox-induced expression and FLAG pull-down efficiency; conditions: control: WTseq

B1: SLC3A2 (4F2hc, CD98): N381D (protein)
parent chain: MELQPPEASIAVVSIPRQLPGSHSEAGVQGLSAGDDSELGSHCVAQTGLELLASGDPLPSASQNAEMIETGSDCVTQAGLQLLASSDPPALASKNAEVTGTMSQDTEVDMKEVELNELEPEKQPMNAASGAAMSLAGAEKNGLVKIKVAEDEAEAAAAAKFTGLSKEELLKVAGSPGWVRTRWALLLLFWLGWLGMLAGAVVIIVRAPRCRELPAQKWWHTGALYRIGDLQAFQGHGAGNLAGLKGRLDYLSSLKVKGLVLGPIHKNQKDDVAQTDLLQIDPNFGSKEDFDSLLQSAKKKSIRVILDLTPNYRGENSWFSTQVDTVATKVKDALEFWLQAGVDGFQVRDIENLKDASSFLAEWQNITKGFSEDRLLIAGTNSSDLQQILSLLESNKDLLLTSSYLSDSGSTGEHTKSLVTQYLNATGNRWCSWSLSQARLLTSFLPAQLLRLYQLMLFTLPGTPVFSYGDEIGLDAAALPGQPMEAPVMLWDESSFPDIPGAVSANMTVKGQSEDPGSLLSLFRRLSDQRSKERSLLHGDFHAFSAGPGLFSYIRHWDQNERFLVVLNFGDVGLSAGLQASDLPASASLPAKADLLLSTQPGREEGSPLELERLKLEPHEGLLLRFPYAA
localisation_or_trafficking [1]: no change | other: Gal3 uptake by expressing cells [2]: decreases | localisation_or_trafficking [3]: increases | localisation_or_trafficking [4]: abolishes | localisation_or_trafficking [5]: changes | expression_or_secretion ([6]; glycan lost): no change

B2: SLC3A2 (4F2hc, CD98): N365D (protein)
parent chain: B1 parent chain
localisation_or_trafficking [1]: no change | other: Gal3 uptake by expressing cells [2]: increases | localisation_or_trafficking [3]: increases | localisation_or_trafficking [4]: changes | localisation_or_trafficking [5]: changes | expression_or_secretion ([6]; glycan lost): no change

B3: SLC3A2 (4F2hc, CD98): D355N + D492N (protein)
parent chain: B1 parent chain
expression_or_secretion ([6]; glycan gained): no change

B4: SLC3A2 (4F2hc, CD98): A273N (protein)
parent chain: B1 parent chain
expression_or_secretion ([6]; glycan gained): no change

B5: SLC3A2 (4F2hc, CD98): A273N + D355N (protein)
parent chain: B1 parent chain
expression_or_secretion ([6]; glycan gained): no change
